Test results: publication PMC11574045, “A cofactor-induced repressive type of transcription factor condensation can be induced by synthetic peptides to suppress tumorigenesis” (The EMBO Journal, 2024)

System: HEK293FT cells transfected with TF library
Test: Screening of TF condensates based on fluorescent puncta
Assay type: cell-based
Details: Figure 1B numerical data; TF library screen, one value per transcriptional factor
Procedure, shortened: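 Cells were seeded onto plasmid/PEI-loaded wells (plasmid 1.6 μg/ml final) and grown 60 h. Medium with or without glucose followed for 12 h. Fixed, permeabilized cells were stained against Flag or GAL4 tags, and condensate puncta were quantified from 50 random fields per well.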

Row | Molecule | Z score of condensed fraction
1 | FOXA3 (protein, UniProt P55318 1-350, looked up) Hepatocyte nuclear factor …: MLGSVKMEAHDLAEWSYYPEAGEVYSPVTPVPTMAPLNSYMTLNPLSSPYPPGGLPASPLPSGPLAPPAPAAPLGPTFPGLGVSGGSSSSGYGAPGPGLVHGKEMPKGYRRPLAHAKPPYSYISLITMAIQQAPGKMLTLSEIYQWIMDLFPYYRENQQRWQNSIRHSLSFNDCFVKVARSPDKPGKGSYWALHPSSGNMFENGCYLRRQKRFKLEEKVKKGGSGAATTTRNGTGSAASTTTPAATVTSPPQPPPPAPEPEAQGGEDVGALDCGSPASSTPYFTGLELPGELKLDAPYNFNHPFSINNLMSEQTPAPPKLDVGFGGYGAEGGEPGVYYQGLYSRSLLNAS | 0.4813
2 | FOSL2 (protein, UniProt P15408 1-326, looked up) Fos-related antigen 2: MYQDYPGNFDTSSRGSSGSPAHAESYSSGGGGQQKFRVDMPGSGSAFIPTINAITTSQDLQWMVQPTVITSMSNPYPRSHPYSPLPGLASVPGHMALPRPGVIKTIGTTVGRRRRDEQLSPEEEEKRRIRRERNKLAAAKCRNRRRELTEKLQAETEELEEEKSGLQKEIAELQKEKEKLEFMLVAHGPVCKISPEERRSPPAPGLQPMRSGGGSVGAVVVKQEPLEEDSPSSSSAGLDKAQRSVIKPISIAGGFYGEEPLHTPIVVTSTPAVTPGTSNLVFTYPSVLEQESPASPSESCSKAHRRSSSSGDQSSDSLNSPTLLAL | -0.8108
3 | FOXB2 (protein, UniProt Q5VYV0 1-432, looked up) Forkhead box protein B2: MPRPGKSSYSDQKPPYSYISLTAMAIQHSAEKMLPLSDIYKFIMERFPYYREHTQRWQNSLRHNLSFNDCFIKIPRRPDQPGKGSFWALHPDCGDMFENGSFLRRRKRFKVLRADHTHLHAGSTKSAPGAGPGGHLHPHHHHHPHHHHHHHAAAHHHHHHHPPQPPPPPPPPPPHMVHYFHQQPPTAPQPPPHLPSQPPQQPPQQSQPQQPSHPGKMQEAAAVAAAAAAAAAAAVGSVGRLSQFPPYGLGSAAAAAAAAAASTSGFKHPFAIENIIGRDYKGVLQAGGLPLASVMHHLGYPVPGQLGNVVSSVWPHVGVMDSVAAAAAAAAAAGVPVGPEYGAFGVPVKSLCHSASQSLPAMPVPIKPTPALPPVSALQPGLTVPAASQQPPAPSTVCSAAAASPVASLLEPTAPTSAESKGGSLHSVLVHS | -0.2645
4 | FOXA1 (protein, UniProt P55317 1-472, looked up) Hepatocyte nuclear factor …: MLGTVKMEGHETSDWNSYYADTQEAYSSVPVSNMNSGLGSMNSMNTYMTMNTMTTSGNMTPASFNMSYANPGLGAGLSPGAVAGMPGGSAGAMNSMTAAGVTAMGTALSPSGMGAMGAQQAASMNGLGPYAAAMNPCMSPMAYAPSNLGRSRAGGGGDAKTFKRSYPHAKPPYSYISLITMAIQQAPSKMLTLSEIYQWIMDLFPYYRQNQQRWQNSIRHSLSFNDCFVKVARSPDKPGKGSYWTLHPDSGNMFENGCYLRRQKRFKCEKQPGAGGGGGSGSGGSGAKGGPESRKDPSGASNPSADSPLHRGVHGKTGQLEGAPAPGPAASPQTLDHSGATATGGASELKTPASSTAPPISSGPGALASVPASHPAHGLAPHESQLHLKGDPHYSFNHPFSINNLMSSSEQQHKLDFKAYEQALQYSPYGSTLPASLPLGSASVTTRSPIEPSALEPAYYQGVYSRPVLNTS | -0.3489
5 | FOXE3 (protein, UniProt Q13461 1-319, looked up) Forkhead box protein E3: MAGRSDMDPPAAFSGFPALPAVAPSGPPPSPLAGAEPGREPEEAAAGRGEAAPTPAPGPGRRRRRPLQRGKPPYSYIALIAMALAHAPGRRLTLAAIYRFITERFAFYRDSPRKWQNSIRHNLTLNDCFVKVPREPGNPGKGNYWTLDPAAADMFDNGSFLRRRKRFKRAELPAHAAAAPGPPLPFPYAPYAPAPGPALLVPPPSAGPGPSPPARLFSVDSLVNLQPELAGLGAPEPPCCAAPDAAAAAFPPCAAAASPPLYSQVPDRLVLPATRPGPGPLPAEPLLALAGPAAALGPLSPGEAYLRQPGFASGLERYL | -0.8488
6 | FOXF2 (protein, UniProt O54743 1-446, looked up) Forkhead box protein F2: MSTEGGPPPPPPRPPPAPLRRACSPAPGALQAALMSPPPAATLESTSSSSSSSSASCASSSSNSVSASAGACKSAASSGGAGAGSGGTKKATSGLRRPEKPPYSYIALIVMAIQSSPSKRLTLSEIYQFLQARFPFFRGAYQGWKNSVRHNLSLNECFIKLPKGLGRPGKGHYWTIDPASEFMFEEGSFRRRPRGFRRKCQALKPMYHRVVSGLGFGASLLPQGFDFQAPPSAPLGCHGQGGYGGLDMMPAGYDTGAGAPGHAHPHHLHHHHVPHMSPNPGSTYMASCPVPAGPAGVGAAAGGGGGGGDYGPDSSSSPVPSSPAMASAIECHSPYTSPAAHWSSPGASPYLKQPPALTPSSNPAASAGLHPSMSSYSLEQSYLHQNAREDLSVGLPRYQHHSTPVCDRKDFVLNFNGISSFHPSASGSYYHHHHQSVCQDIKPCVM | 0.2019
7 | AIOLOS (protein, UniProt Q9UKT9 1-509, looked up) Zinc finger protein Aiolos: MEDIQTNAELKSTQEQSVPAESAAVLNDYSLTKSHEMENVDSGEGPANEDEDIGDDSMKVKDEYSERDENVLKSEPMGNAEEPEIPYSYSREYNEYENIKLERHVVSFDSSRPTSGKMNCDVCGLSCISFNVLMVHKRSHTGERPFQCNQCGASFTQKGNLLRHIKLHTGEKPFKCHLCNYACQRRDALTGHLRTHSVEKPYKCEFCGRSYKQRSSLEEHKERCRTFLQSTDPGDTASAEARHIKAEMGSERALVLDRLASNVAKRKSSMPQKFIGEKRHCFDVNYNSSYMYEKESELIQTRMMDQAINNAISYLGAEALRPLVQTPPAPTSEMVPVISSMYPIALTRAEMSNGAPQELEKKSIHLPEKSVPSERGLSPNNSGHDSTDTDSNHEERQNHIYQQNHMVLSRARNGMPLLKEVPRSYELLKPPPICPRDSVKVINKEGEVMDVYRCDHCRVLFLDYVMFTIHMGCHGFRDPFECNMCGYRSHDRYEFSSHIARGEHRALLK | 0.5203
8 | FOXD4L4 (protein, UniProt Q8WXT5 1-416, looked up) Forkhead box protein D4-like 4: MNLPRAERPRSTPQRSLRDSDGEDGKIDVLGEEEDEDEVEDEEEEARQQFLEQSLQPGLQVARWGGVALPREHIEGGGGPSDPSEFGTKFRAPPRSAAASEDARQPAKPPYSYIALITMAILQNPHKRLTLSGICAFISGRFPYYRRKFPAWQNSIRHNLSLNDCFVKIPREPGHPGKGNYWSLDPASQDMFDNGSFLRRRKRFKRHQLTPGAHLPHPFPLPAAHAALHNPHPGPLLGAPAPPQPVPGAYPNTAPGRRPYALLHPHPLRYLLLSARVYAGAPKKAEGADLATPAPFPCCSPHLVLSLGRRARVWRRHREADASLSALRVLCKGSGERVQGLRRVCPRPRGATATCSSDHQACCIPKPLPLCCKCPPPLLLGQFCSNSSSIRRTAPTAALPPRARCWAGTCRPRRRC | 0.1205
9 | FOXD4L5 (protein, UniProt Q5VV16 1-416, looked up) Forkhead box protein D4-like 5: MNLPRAERPRSTPQRSLRDSDGEDGKIDVLGEEEDEDEVEDEEEEARQQFLEQSLQPGLQVARWGGVALPREHIEGGGGPSDPSEFGTKFRAPPRSAAASEDARQPAKPPYSYIALITMAILQNPHKRLTLSGICAFISGRFPYYRRKFPAWQNSIRHNLSLNDCFVKIPREPGHPGKGNYWSLDPASQDMFDNGSFLRRRKRFKRHQLTPGAHLPHPFPLPAAHAALHNPHPGPLLGAPAPPQPVPGAYPNTAPGRCPYALLHPHPLRYLLLSAPVYAGAPKKAEGADLATPAPFPCCSPHLVLSLGRRARVWRRHREADASLSALRVLCKGSGERVQGLRRVCPRPRGATATCSSDHQACCIPKPLPLCCKCPPPLLLGQFCSNSSSIRRTAPTAALPPRARCWAGTCRPRRRC | -0.7466
10 | FOXI2 (protein, UniProt Q6ZQN5 1-318, looked up) Forkhead box protein I2: MATYCDDLGPSSAPPGQAQATAHPPGYEPGDLGAVGGGPLLWVNAPALSPKSYASGPGPAPPYAAPSYGAPGPLLGAPGGLAGADLAWLSLSGQQELLRLVRPPYSYSALIAMAIQSAPLRKLTLSQIYQYVAGNFPFYKRSKAGWQNSIRHNLSLNDCFKKVPRDEDDPGKGNYWTLDPNCEKMFDNGNFRRKRKRRAEASAAVRSGARSVGGAEAPALEPPSAACLDLQASPSPSAPEAATCFSGFASAMSALAGGLGTFPGGLAGDFSFGRRPPTVATHAPQTLNPSPGFAPGHQTAAAGFRLSHLLYSREGTEV | -0.5391
11 | FOXD4L1 (protein, UniProt Q9NU39 1-408, looked up) Forkhead box protein D4-like 1: MNLPRAERPRSTPQRSLRDSDGEDGKIDVLGEEEDEDEVEDEEEEASQKFLEQSLQPGLQVARWGGVALPREHIEGGGPSDPSEFGTEFRAPPRSAAASEDARQPAKPPYSYIALITMAILQSPHKRLTLSGICAFISGRFPYYRRKFPAWQNSIRHNLSLNDCFVKIPREPGHPGKGTYWSLDPASQDMFDNGSFLRRRKRFKRHQLTPGAHLPHPFPLPAAHAALHNPRPGPLLGAPALPQPVPGAYPNTAPGRRPYALLHPHPPRYLLLSAPAYAGAPKKAEGADLATPGTLPVLQPSLGPQPWEEGKGLASPPGGGCISFSIESIMQGVRGAGTGAAQSLSPTAWSYCPLLQRPSSLSDNFAATAAASGGGLRQRLRSHQGRGAGRAPVGRVGAAAVSGGGRGL | -0.9826
12 | FOXI1 (protein, UniProt Q12951 1-378, looked up) Forkhead box protein I1: MSSFDLPAPSPPRCSPQFPSIGQEPPEMNLYYENFFHPQGVPSPQRPSFEGGGEYGATPNPYLWFNGPTMTPPPYLPGPNASPFLPQAYGVQRPLLPSVSGLGGSDLGWLPIPSQEELMKLVRPPYSYSALIAMAIHGAPDKRLTLSQIYQYVADNFPFYNKSKAGWQNSIRHNLSLNDCFKKVPRDEDDPGKGNYWTLDPNCEKMFDNGNFRRKRKRKSDVSSSTASLALEKTESSLPVDSPKTTEPQDILDGASPGGTTSSPEKRPSPPPSGAPCLNSFLSSMTAYVSGGSPTSHPLVTPGLSPEPSDKTGQNSLTFNSFSPLTNLSNHSGGGDWANPMPTNMLSYGGSVLSQFSPHFYNSVNTSGVLYPREGTEV | -1.1314
